Patent US20240366728A1 (CARMOT THERAPEUTICS, published 2024)

Columns and labels:
Experiment in all cases: cell-based or functional assay
[1] = target: T1, mouse GIPR (mouse, UniProt Q0P543 19-460)
T1 sequence (looked up): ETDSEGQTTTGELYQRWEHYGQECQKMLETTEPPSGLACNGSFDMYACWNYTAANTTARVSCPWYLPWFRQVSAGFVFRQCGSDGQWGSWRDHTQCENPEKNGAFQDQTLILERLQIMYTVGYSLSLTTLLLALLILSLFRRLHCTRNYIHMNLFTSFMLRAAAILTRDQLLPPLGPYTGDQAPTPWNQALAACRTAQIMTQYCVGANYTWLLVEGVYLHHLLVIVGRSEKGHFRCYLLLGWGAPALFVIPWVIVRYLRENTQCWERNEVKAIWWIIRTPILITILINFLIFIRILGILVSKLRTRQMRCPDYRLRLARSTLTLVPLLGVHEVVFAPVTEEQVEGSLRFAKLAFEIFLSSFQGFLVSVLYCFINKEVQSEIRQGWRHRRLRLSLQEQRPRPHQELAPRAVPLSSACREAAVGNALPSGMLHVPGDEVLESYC

[2] = target: T2, human GLP-1R (human, UniProt P43220 24-463)
[3] = target: T3, mouse GLP-1R (mouse, UniProt O35659 22-463)
T3 sequence (looked up): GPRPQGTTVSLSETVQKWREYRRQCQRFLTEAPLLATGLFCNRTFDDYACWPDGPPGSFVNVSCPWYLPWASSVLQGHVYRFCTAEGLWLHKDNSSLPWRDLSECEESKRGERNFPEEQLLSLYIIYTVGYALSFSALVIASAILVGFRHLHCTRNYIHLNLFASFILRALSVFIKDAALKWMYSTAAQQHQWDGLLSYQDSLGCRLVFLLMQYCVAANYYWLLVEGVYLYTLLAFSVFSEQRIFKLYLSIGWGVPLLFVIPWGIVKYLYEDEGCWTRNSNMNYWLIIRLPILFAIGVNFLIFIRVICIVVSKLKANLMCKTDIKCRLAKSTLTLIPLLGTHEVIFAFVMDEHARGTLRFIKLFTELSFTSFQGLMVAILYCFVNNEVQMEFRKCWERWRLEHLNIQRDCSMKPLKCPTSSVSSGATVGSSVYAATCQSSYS

[4] = target: T4, human GIPR (human, UniProt P48546 22-466)
T4 sequence (looked up): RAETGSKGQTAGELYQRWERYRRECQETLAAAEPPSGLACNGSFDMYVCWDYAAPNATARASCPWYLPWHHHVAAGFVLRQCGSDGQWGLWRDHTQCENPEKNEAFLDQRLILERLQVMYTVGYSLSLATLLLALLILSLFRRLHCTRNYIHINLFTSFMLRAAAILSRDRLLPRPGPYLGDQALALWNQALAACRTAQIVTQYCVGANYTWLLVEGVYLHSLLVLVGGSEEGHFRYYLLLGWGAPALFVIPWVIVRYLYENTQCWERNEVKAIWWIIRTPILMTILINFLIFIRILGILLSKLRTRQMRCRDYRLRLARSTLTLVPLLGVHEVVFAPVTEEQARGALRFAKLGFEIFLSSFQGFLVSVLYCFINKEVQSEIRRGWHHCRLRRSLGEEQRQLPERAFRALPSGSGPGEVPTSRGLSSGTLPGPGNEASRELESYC

[5] = target: T2, human GLP-1R; remark: listed apart in the source
[6] = target: T4, human GIPR; remark: listed apart in the source

B1: CT-868 (peptide)
peptide: EGTFTSDYSIYLDKQAAXEFVNWLLAGGPSSGAPPPSK
modifications: N-terminal 2-(2-Piperidon-1-yl)-ethylcarbamoylmethylthio-acetyl on Glu; Aib (18th residue of the printed chain); C-terminal Lys(γ-Glu-palmitoyl)-NH2; hydrochloride salt
Question: B1 was tested. Which “mGIPR cAMP (-alb) EC50” value [1] did it give?
Answer: 1.03 nM

Question: What about the “mGIPR β-arrestin-2 EC50” value [1] of the same binder?
Answer: 6.21 nM

Question: And the “mGIPR/mGLP-1R cAMP ratio” value [1]?
Answer: 6

Question: What about the “hGLP-1R Internalization EC50” value [2] of the same binder?
Answer: 3.1 nM

Question: And the “hGLP-1R cAMP (-alb) EC50” value [2]?
Answer: 0.156 nM

Question: And the “hGLP-1R β-arrestin-2 EC50” value [2]?
Answer: 11 nM

Question: And the “mGLP-1R cAMP (-alb) EC50” value [3]?
Answer: 0.164 nM

Question: What about the “mGLP-1R β-arrestin-2 EC50” value [3] of the same binder?
Answer: 21.1 nM

Question: And the “hGIPR Internalization EC50” value [4]?
Answer: 14 nM

Question: What about the “hGIPR cAMP (-alb) EC50” value [4] of the same binder?
Answer: 1.9 nM

Question: And the “hGIPR β-arrestin-2 EC50” value [4]?
Answer: 13 nM

Question: What about the “hGIPR/hGLP-1R cAMP ratio” value [4] of the same binder?
Answer: 12

Question: What about the “fold less potent than GLP-1 (cAMP accumulation)” value [5] of the same binder?
Answer: 6 fold

Question: What about the “fold less potent than GIP (cAMP accumulation)” value [6] of the same binder?
Answer: 16 fold

Question: And the “ratio GLP-1R over GIPR (cAMP potency)” value [6]?
Answer: ~19.4
